Laboratory results published in paper PMC7160556.

T1: endogenous 14-3-3ζ (YWHAZ) (human (endogenous in A549)), P63104
T1 chain: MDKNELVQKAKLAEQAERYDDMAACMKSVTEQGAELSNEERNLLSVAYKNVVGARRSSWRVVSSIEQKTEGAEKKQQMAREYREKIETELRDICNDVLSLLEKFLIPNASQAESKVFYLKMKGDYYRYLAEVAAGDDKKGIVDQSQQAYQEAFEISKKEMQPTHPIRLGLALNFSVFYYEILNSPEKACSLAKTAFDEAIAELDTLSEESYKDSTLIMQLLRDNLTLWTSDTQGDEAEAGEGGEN

T2: untagged 14-3-3ζ, overexpressed, P63104
T2 chain: T1 chain

B1: endogenous 14-3-3ζ (YWHAZ), P63104 1-245 (natural protein)
chain: T1 chain
B2: untagged 14-3-3ζ, overexpressed, P63104 1-245 (natural protein)
chain: T1 chain

Legend:
[1] = molecular target: T1, endogenous 14-3-3ζ (YWHAZ) (human …); assay: native gel or EMSA; details: remark: other sources report otherwise
[2] = molecular target: T2, untagged 14-3-3ζ, overexpressed, P63104; assay: native gel or EMSA; details: remark: other sources report otherwise

Row | Binder | stoichiometry N [1] | stoichiometry N [2]
1 | B1 | 2 | 
2 | B2 |  | 2
